How the values were obtained:
[1] = molecular target: HA-tagged human CXCR1 expressed on L1.2 cells (human) (UniProt P25024); assay: radioligand binding; competition of increasing concentrations of unlabeled CXCL8 (pre-incubated with H292 or H575 culture supernatant, then Pefabloc SC) against [125I]-CXCL8 on L1.2 cells expressing HA-CXCR1 or HA-CXCR2; n = 6
[2] = molecular target: HA-tagged human CXCR2 expressed on L1.2 cells (human) (UniProt P25025); assay: as above

IC50 [1]: 8.1 nM
IC50 [2]: 8.7 nM
Substance: Recombinant human CXCL8, 72 aa form (CXCL8^1–72), intact (incubated with control H575 supernatant) (ligand)
